The record followed here is article PMC12636746, “Structural Basis for TRF2-RAP1 Recruitment by EBNA1 at the EBV origin of replication” (Research Square, 2025).

Sequences and labels used below:
B1: EBNA1 DNA binding domain (DBD) aa 401–607 (domain or fragment)
chain: GRRPFFHPVGEADYFEYHQEGGPDGEPDVPPGAIEQGPADDPGEGPSTGPRGQGDGGRRKKGGWFGKHRGQGGSNPKFENIAEGLRALLARSHVERTTDEGTWVAGVFVYGGSKTSLYNLRRGTALAIPQCRLTPLSRLPFGMAPGPGPQPGPLRESIVCYFMVFLQTHIFAEVLKDAIKDLVMTKPAPTCNIRVTVCSFDDGVDLP
notes: also called EBNA1 DBD; EBNA1(401–607); source: E. coli, autoinduction medium, purified (Ni-NTA, Superdex 75); not shown: His6-SUMO, N-terminal, cleaved
B4: TRF2 homodimerization domain (TRFH), residues 85–287 of TRF2 (domain or fragment, UniProt Q15554 85-287, looked up)
chain: AGEARLEEAVNRWVLKFYFHEALRAFRGSRYGDFRQIRDIMQALLVRPLGKEHTVSRLLRVMQCLSRIEEGENLDCSFDMEAELTPLESAINVLEMIKTEFTLTEAVVESSRKLVKEAAVIICIKNKEFEKASKILKKHMSKDPTTQKLRNDLLNIIREKNLAHPVIQNFSYETFQQKMLRFLESHLDDAEPYLLTMAKKALK
notes: also called TRFH domain; TRF2 dimerization domain; source: E. coli (all constructs), purified
B5: pre-assembled full length TRF2/Rap1 complex (complex)
chain 1: MAAGAGTAGPASGPGVVRDPAASQPRKRPGREGGEGARRSDTMAGGGGSSDGSGRAAGRRASRSSGRARRGRHEPGLGGPAERGAGEARLEEAVNRWVLKFYFHEALRAFRGSRYGDFRQIRDIMQALLVRPLGKEHTVSRLLRVMQCLSRIEEGENLDCSFDMEAELTPLESAINVLEMIKTEFTLTEAVVESSRKLVKEAAVIICIKNKEFEKASKILKKHMSKDPTTQKLRNDLLNIIREKNLAHPVIQNFSYETFQQKMLRFLESHLDDAEPYLLTMAKKALKSESAASSTGKEDKQPAPGPVEKPPREPARQLRNPPTTIGMMTLKAAFKTLSGAQDSEAAFAKLDQKDLVLPTQALPASPALKNKRPRKDENESSAPADGEGGSELQPKNKRMTISRLVLEEDSQSTEPSAGLNSSQEAASAPPSKPTVLNQPLPGEKNPKVPKGKWNSSNGVEEKETWVEEDELFQVQAAPDEDSTTNITKKQKWTVEESEWVKAGVQKYGEGNWAAISKNYPFVNRTAVMIKDRWRTMKRLGMN
chain 2: MAEAMDLGKDPNGPTHSSTLFVRDDGSSMSFYVRPSPAKRRLSTLILHGGGTVCRVQEPGAVLLAQPGEALAEASGDFISTQYILDCVERNERLELEAYRLGPASAADTGSEAKPGALAEGAAEPEPQRHAGRIAFTDADDVAILTYVKENARSPSSVTGNALWKAMEKSSLTQHSWQSLKDRYLKHLRGQEHKYLLGDAPVSPSSQKLKRKAEEDPEAADSGEPQNKRTPDLPEEEYVKEEIQENEEAVKKMLVEATREFEEVVVDESPPDFEIHITMCDDDPPTPEEDSETQPDEEEEEEEEKVSQPEVGAAIKIIRQLMEKFNLDLSTVTQAFLKNSGELEATSAFLASGQRADGYPIWSRQDDIDLQKDDEDTREALVKKFGAQNVARRIEFRKK
notes: source: E. coli, each protein purified; complex pre-assembled and purified by glycerol gradient; not shown: His6-SUMO, N-terminal, cleaved

What all share (details): both partners purified
One assay deals with T1, full-length TRF2 (UniProt Q15554 1-542).
T1 construct: also called TERF2; source: E. coli, autoinduction medium, purified (Ni-NTA, Superdex 75); not shown: His6-SUMO, N-terminal, cleaved
T1 sequence (looked up): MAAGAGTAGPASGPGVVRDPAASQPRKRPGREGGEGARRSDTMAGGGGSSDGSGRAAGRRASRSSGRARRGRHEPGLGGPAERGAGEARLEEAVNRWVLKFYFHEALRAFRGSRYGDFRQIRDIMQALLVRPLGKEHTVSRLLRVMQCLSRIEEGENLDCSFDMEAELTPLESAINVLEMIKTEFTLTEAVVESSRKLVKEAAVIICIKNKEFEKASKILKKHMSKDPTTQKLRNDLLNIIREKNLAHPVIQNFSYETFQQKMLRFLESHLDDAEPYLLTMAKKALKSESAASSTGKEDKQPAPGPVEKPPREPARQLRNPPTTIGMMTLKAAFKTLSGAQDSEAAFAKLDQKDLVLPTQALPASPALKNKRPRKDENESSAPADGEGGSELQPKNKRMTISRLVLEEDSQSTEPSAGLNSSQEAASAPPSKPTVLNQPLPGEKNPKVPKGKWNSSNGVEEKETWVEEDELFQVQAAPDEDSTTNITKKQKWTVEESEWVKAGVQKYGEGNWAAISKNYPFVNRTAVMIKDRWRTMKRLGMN
The assay is described as follows: native gel or EMSA; EBNA1 DBD pre-formed on the 60 bp ½DS DNA probe (5 nM, IRD700), TRF2 and then Rap1 added; 10 mM HEPES pH 7.5, 300 mM KCl, 5 mM MgCl2, 1 mM ZnCl2, 5 mM BME, 0.05% NP-40, 5% glycerol; 1.4% agarose gel. (In general: In EMSA bound probe runs differently from free probe, usually more slowly.)

The next assay concerns the target T2, full-length Rap1 (human, UniProt Q9NYB0 1-399).
T2 construct: also called TERF2IP; source: E. coli, autoinduction medium, purified (Ni-NTA, Superdex 75); not shown: His6-SUMO, N-terminal, cleaved
T2 sequence (looked up): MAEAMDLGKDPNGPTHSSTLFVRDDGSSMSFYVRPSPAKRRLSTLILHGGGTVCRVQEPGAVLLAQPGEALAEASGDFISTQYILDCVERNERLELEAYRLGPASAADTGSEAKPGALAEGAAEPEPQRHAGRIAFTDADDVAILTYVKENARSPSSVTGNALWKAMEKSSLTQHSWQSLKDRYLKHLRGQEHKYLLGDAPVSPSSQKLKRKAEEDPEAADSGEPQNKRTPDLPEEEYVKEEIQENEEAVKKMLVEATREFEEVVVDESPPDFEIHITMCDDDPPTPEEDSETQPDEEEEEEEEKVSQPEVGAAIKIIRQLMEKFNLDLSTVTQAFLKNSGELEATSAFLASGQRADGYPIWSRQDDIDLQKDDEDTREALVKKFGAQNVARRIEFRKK
The assay is described as above.

Assay [1] has as its target B5. As to the kind of experiment: native gel or EMSA; pre-assembled TRF2-Rap1 complex (glycerol gradient) serially diluted onto pre-assembled ½DS-EBNA1 complex (10X stock 200 nM EBNA1, 50 nM ½DS DNA); binding buffer with 300 mM KCl; 1.4% agarose gel.
Assay [2] deals with B4. As to the kind of experiment: native gel or EMSA; TRFH domain added to the ½DS-EBNA1 complex; binding buffer lowered to 100 mM KCl, highest TRFH 10 μM (1000-fold excess); under standard conditions only a weak supershift.
Assay [3] concerns the target B1. The description is as above.
The target of assay [4] is T3, EBNA1Δ90–325 3x (E495A D499A E500A) (Epstein-Barr virus, UniProt P03211 1-641, Δ90–325 | E495A | D499A | E500A).
T3 construct: also called 3x mutant EBNA1; source: E. coli, autoinduction medium, purified (Ni-NTA, Superdex 75); not shown: His6-SUMO, N-terminal, cleaved
T3 sequence: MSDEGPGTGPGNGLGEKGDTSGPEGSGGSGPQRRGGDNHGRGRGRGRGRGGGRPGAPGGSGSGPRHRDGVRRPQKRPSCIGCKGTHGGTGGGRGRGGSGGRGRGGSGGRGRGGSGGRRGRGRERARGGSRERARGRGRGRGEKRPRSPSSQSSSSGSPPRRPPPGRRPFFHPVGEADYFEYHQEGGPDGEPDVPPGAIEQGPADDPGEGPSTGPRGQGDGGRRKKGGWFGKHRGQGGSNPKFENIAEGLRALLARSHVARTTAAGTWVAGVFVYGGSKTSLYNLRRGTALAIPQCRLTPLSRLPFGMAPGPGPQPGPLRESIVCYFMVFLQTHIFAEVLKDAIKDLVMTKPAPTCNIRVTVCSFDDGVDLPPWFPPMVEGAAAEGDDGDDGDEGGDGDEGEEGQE
The assay is described as follows: native gel or EMSA; pre-assembled TRF2-Rap1 complex (glycerol gradient) serially diluted onto pre-assembled ½DS-EBNA1 complex (10X stock 200 nM EBNA1, 50 nM ½DS DNA); binding buffer with 300 mM KCl; 1.4% agarose gel.

For B1, the binding result in the assay with full-length TRF2 and with full-length Rap1 was “binds” in each case.

B2: EBNA1ΔGA (Δ90–325), wild type (natural protein)
chain: MSDEGPGTGPGNGLGEKGDTSGPEGSGGSGPQRRGGDNHGRGRGRGRGRGGGRPGAPGGSGSGPRHRDGVRRPQKRPSCIGCKGTHGGTGGGRGRGGSGGRGRGGSGGRGRGGSGGRRGRGRERARGGSRERARGRGRGRGEKRPRSPSSQSSSSGSPPRRPPPGRRPFFHPVGEADYFEYHQEGGPDGEPDVPPGAIEQGPADDPGEGPSTGPRGQGDGGRRKKGGWFGKHRGQGGSNPKFENIAEGLRALLARSHVERTTDEGTWVAGVFVYGGSKTSLYNLRRGTALAIPQCRLTPLSRLPFGMAPGPGPQPGPLRESIVCYFMVFLQTHIFAEVLKDAIKDLVMTKPAPTCNIRVTVCSFDDGVDLPPWFPPMVEGAAAEGDDGDDGDEGGDGDEGEEGQE
notes: also called WT EBNA1; "full-length" EBNA1; source: E. coli, autoinduction medium, purified (Ni-NTA, Superdex 75); not shown: His6-SUMO, N-terminal, cleaved
In the case of B2, the binding result in assay [1] is on record as “binds”.

B3: EBNA1 459–607 (domain or fragment)
chain: RKKGGWFGKHRGQGGSNPKFENIAEGLRALLARSHVERTTDEGTWVAGVFVYGGSKTSLYNLRRGTALAIPQCRLTPLSRLPFGMAPGPGPQPGPLRESIVCYFMVFLQTHIFAEVLKDAIKDLVMTKPAPTCNIRVTVCSFDDGVDLP
notes: also called shorter EBNA1 459–607; core structured DBD; source: E. coli (all constructs), purified
B3: the binding result in assay [2] is given as “binds”.

In the case of B4, in assay [3], the binding result is recorded as “binds”. Consider B5, for which the “fold weaker than with WT EBNA1” value in assay [4] is about 2 fold.
